Assay results: patent US6670167B1, “Catalytic domain of the human effector cell cycle checkpoint protein kinase materials and methods for identification of inhibitors thereof” (Agouron Pharmaceuticals, Inc., priority 1999, dated 2003)

Tested on: Chk1
Experiment: Chk1 kinase activity of enzyme preparations, ADP production coupled through pyruvate kinase and lactate dehydrogenase (Syntide-2 substrate)
Format: biochemical, human
Conditions: for Rate/min: prep concentration 75 nM (HA2-013), 2 nM (HA2-022), 7.3 nM (HB2-061), 0.125 mM Syntide-2, 0.15 mM ATP; for Activity: relative to full length Chk1 (control = 1)
Experimental: The kinase activity of the hChk1 was determined by monitoring the ADP production through enzymatic actions of pyruvate kinase and lactate dehydrogenase. […] Unlike the other forms of Chk1 which have proven difficult to work with (isolate, purify, crystallize, etc), the 1-289 kinase domain form of the human Chk1 enzyme facilitated crystallography, enzyme characterization, and high throughput screening of inhibitors. In particular, the Chk1 kinase domain was used to determine its 3-dimensional structure, which provides unique structural information for inhibitor design for therapeutic development.
The enzymatic activity of a kinase is measured by its ability to catalyze the transfer of a phosphate residue from a nucleoside triphosphate to an amino acid side chain in a selected protein target. The conversion of ATP to ADP generally accompanies the catalytic reaction. Herein, a synthetic substrate peptide, Syntide-2, having amino acid sequence PLARTLSVAGLPGKK (SEQ ID NO. 11) was utilized. The production of ADP from ATP that accompanies phosphoryl transfer to the substrate was coupled to oxidation of NADH using phosphoenolpyruvate (PEP) through the actions of pyruvate kinase (PK) and lactic dehydrogenase (LDH). The oxidation of NADH was monitored by following the decrease of absorbance at 340 nm (e340=6.22 cm−1 mM−1) using a HP8452 spectrophotometer. Typical reaction solutions contained: 4 mM PEP, 0.15 mM NADH, 28 units of LDH/mL, 16 units of PK/mL, 3 mM DTT, 0.125 mM Syntide-2, 0.15 mM ATP and 25 mM MgCl2 in 50 mM TRIS pH 7.5; 400 mM NaCl. Assays were initiated with 10 nM of kinase domain of Chk1, KH289. Ki values were determined by measuring initial enzyme activity in the presence of varying concentrations of inhibitors. The data were analyzed using Enzyme Kinetic and Kaleidagraph software.
The table below (Table 3) compares three different preparations of Chk1. The first preparation is the full length form, which comprises amino acids 1-476 of SEQ ID NO. 2. The next preparation contains proteolytically cleaved fragments, a mixture of Chk1 protein fragments obtained from the full-length protein during fermentation. The exact enzymes involved and cleavage site generated for these fragments is unknown. […] The third preparation is the kinase domain of amino acids 1-289 of SEQ ID NO. 2 (KH289) As mentioned above, the assay used detects the ADP product by coupling through the enzymatic actions of pyruvate kinase and lactate dehydrogenase.

Sequence of Chk1 (O14757 9-265 limits assumed): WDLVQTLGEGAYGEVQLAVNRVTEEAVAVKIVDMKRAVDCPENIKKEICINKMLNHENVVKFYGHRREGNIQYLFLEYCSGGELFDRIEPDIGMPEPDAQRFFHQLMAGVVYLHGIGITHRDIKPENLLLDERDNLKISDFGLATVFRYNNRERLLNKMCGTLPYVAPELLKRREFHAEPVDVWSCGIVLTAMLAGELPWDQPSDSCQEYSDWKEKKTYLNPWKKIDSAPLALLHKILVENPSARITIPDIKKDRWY

B1: HB2-061: preparation of the kinase domain of amino acids 1-289 of SEQ ID NO. 2 (KH289) (protein, listed as Homo sapiens)
chain: MAVPFVEDWDLVGTLGEGAYGEVQLAVNRVTEEAVAVKIVDMKRAVDCPENIKKEICINKMLNHENVVKFYGHRREGNIQYLFLEYCSGGELFDRIEPDIGMPEPDAQRFFHQLMAGVVYLHGIGITHRDIKPENLLLDERDNLKISDFGLATVFRYNNRERLLNKMCGTLPYVAPELLKRREFHAEPVDVWSCGIVLTAMLAGELPWDQPSDSCQEYSDWKEKKTYLNPWKKIDSAPLALLHKILVENPSARITIPDIKKDRWYNKPLKKGAKRPRVTSGGVSESPSG
Rate/min: 0.0200
Activity: +10 fold

B2: KH289: human Chk1 kinase domain (AA 1-289), C-terminal 6xHis-tag (protein)
chain: MAVPFVEDWDLVGTLGEGAYGEVQLAVNRVTEEAVAVKIVDMKRAVDCPENIKKEICINKMLNHENVVKFYGHRREGNIQYLFLEYCSGGELFDRIEPDIGMPEPDAQRFFHQLMAGVVYLHGIGITHRDIKPENLLLDERDNLKISDFGLATVFRYNNRERLLNKMCGTLPYVAPELLKRREFHAEPVDVWSCGIVLTAMLAGELPWDQPSDSCQEYSDWKEKKTYLNPWKKIDSAPLALLHKILVENPSARITIPDIKKDRWYNKPLKKGAKRPRVTSGGVSESPSGHHHHHH
enzymatic activity compared with the full length protein (ADP production via pyruvate kinase and lactate dehydrogenase): higher enzymatic activity than the full length protein

B3: HA2-013: preparation of the full length form of human Chk1, amino acids 1-476 of SEQ ID NO. 2 (protein, listed as Homo sapiens)
chain: MAVPFVEDWDLVGTLGEGAYGEVQLAVNRVTEEAVAVKIVDMKRAVDCPENIKKEICINKMLNHENVVKFYGHRREGNIQYLFLEYCSGGELFDRIEPDIGMPEPDAQRFFHQLMAGVVYLHGIGITHRDIKPENLLLDERDNLKISDFGLATVFRYNNRERLLNKMCGTLPYVAPELLKRREFHAEPVDVWSCGIVLTAMLAGELPWDQPSDSCQEYSDWKEKKTYLNPWKKIDSAPLALLHKILVENPSARITIPDIKKDRWYNKPLKKGAKRPRVTSGGVSESPSGFSKHIQSNLDFSPVNSASSEENVKYSSSQPEPRTGLSLWDTSPSYIDKLVQGISFSQPTCPDHMLLNSGLLGTPGSSQNPWQRLVKRMTRFFTKLDADKSYQCLKETCEKLQYQWKKSCMNQVTISTTDRRNNKLIFKVNLLEMDDKILVDFRLSKGDGLEFKRHFLKIKGKLIDIVSSQKVWLPAT
Rate/min: 0.0190
Activity: 1 (control) fold
